Results reported in paper PMC2714593, “Insights into the role of Val45 and Gln182 of Escherichia coli MutY in DNA substrate binding and specificity”.

Biological target: T1, MutY (EcMutY) wild type (Escherichia coli, UniProt P17802 1-350)
T1 sequence: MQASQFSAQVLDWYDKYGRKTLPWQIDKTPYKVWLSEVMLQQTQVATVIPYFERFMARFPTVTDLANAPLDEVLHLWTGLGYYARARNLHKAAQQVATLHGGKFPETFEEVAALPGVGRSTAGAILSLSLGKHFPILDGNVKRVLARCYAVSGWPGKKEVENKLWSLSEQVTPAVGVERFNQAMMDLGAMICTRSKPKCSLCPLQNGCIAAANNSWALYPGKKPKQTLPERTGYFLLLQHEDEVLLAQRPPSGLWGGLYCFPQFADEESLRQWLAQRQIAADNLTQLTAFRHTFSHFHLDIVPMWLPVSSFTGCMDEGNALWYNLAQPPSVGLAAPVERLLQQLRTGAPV
Assay: EMSA; 20 mM Tris-HCl pH 7.6, 80 mM NaCl, 1 mM DTT, 1 mM EDTA, 2.9% glycerol, 20 ng poly dI/dC per 20 ul, 0.09 nM labeled DNA, 30 min at 30 C; 4% PAGE in TBE
Details: protein: recombinant; label: 5'-32P on X strand; blunt; T/G mismatch at strand 1 position 22

B1: T/G 44-mer (dsDNA)
DNA 1: AATTGGGCTCCTCGAGGAATTTGCCTTCTGCAGGCATGCCCCGG
DNA 2: CCGGGGCATGCCTGCAGAAGGCGAATTCCTCGAGGAGCCCAATT
B1 gave a Kd of 14 ± 1 nM.
